# According to US20150033371A1, “HAIR FOLLICLE STEM CELLS AND METHODS OF USE SAME” (University of Southern California, priority 2011, published 2015):
# B1: WNT activator 2 recombinant protein: recombinant Wnt7a protein (wingless-type MMTV integration site family, member 7A), called WNT activator 2 (protein, UniProt O00755 32-349, looked up)
# Protein Wnt-7a: LGASIICNKIPGLAPRQRAICQSRPDAIIVIGEGSQMGLDECQFQFRNGRWNCSALGERTVFGKELKVGSREAAFTYAIIAAGVAHAITAACTQGNLSDCGCDKEKQGQYHRDEGWKWGGCSADIRYGIGFAKVFVDAREIKQNARTLMNLHNNEAGRKILEENMKLECKCHGVSGSCTTKTCWTTLPQFRELGYVLKDKYNEAVHVEPVRASRNKRPTFLKIKKPLSYRKPMDTDLVYIEKSPNYCEEDPVTGSVGTQGRACNKTAPQASGCDLMCCGRGYNTHQYARVWQCNCKFHWCCYVKCNTCSERTEMYTCK
# Experiments:
# [1] = DMSO; cited from earlier work
# [2] = published reports; cited from earlier work
# hair germ = experiment: subcutaneous injection of WNT activator 2 recombinant protein in mice, hair germ activation and hair cycle; format: in vivo; details: for hair germ activation: mice (FIG. 12); for telogen to anagen transition: mice (FIG. 13)
# Description: To further investigate the effect of WNT activator 2 in hair germ activation, mice received subcutaneous injection of WNT activator 2 recombinant protein.
Molecule,solubility [1],toxicity [2],hair germ activation (hair germ),hair germ activation (hair germ; listed as WNT activator 2),telogen to anagen transition (hair germ),telogen to anagen transition (hair germ; listed as WNT activator 2)
c1cc(-c2cnn3cc(-c4ccc(OCCN5CCCCC5)cc4)cnc23)ccn1 [Dorsomorphin],soluble in DMSO,low toxicity,–,–,–,–
B1,–,–,induces precocious hair germ activation,induced precocious hair germ activation,promotes precocious telogen to anagen transition,promoted precocious telogen to anagen transition
